Results taken from patent US20150344570A1 (published 2015).

T1: FcγRIIb (human, UniProt P31994 43-217)
T1 construct: extracellular domain; Soluble extracellular domain with C-terminal His tag, used as analyte; also called FcgRIIb; CD32B; not shown: His tag at the C terminus
T1 sequence (looked up): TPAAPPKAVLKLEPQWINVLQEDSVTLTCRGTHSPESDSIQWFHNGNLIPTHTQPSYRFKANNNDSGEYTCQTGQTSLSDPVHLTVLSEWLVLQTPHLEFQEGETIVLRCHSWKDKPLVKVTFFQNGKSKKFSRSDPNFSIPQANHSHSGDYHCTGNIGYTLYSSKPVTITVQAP


Key:
FcγRIa = biological target: T2, FcγRIa (human, UniProt P12314 16-292); test: SPR (Biacore), captured antibody, FcγR as analyte, relative binding
T2 construct: extracellular domain; Soluble extracellular domain with C-terminal His tag, used as analyte; also called FcgRI; CD64; not shown: His tag at the C terminus
Experimental: (§1) The heterodimerized antibodies He Abs in which one of the H chains was introduced with an alteration were assayed for their binding activities to each activating FcγR and inhibitory FcγR according to the method described in Example 4. […] The activating FcγRs in FIGS. 26, 27, 28, and 29 are FcγRIa, FcγRIIa (R), FcγRIIa (H), and FcγRIIIa, respectively.
(§2) Analysis of interaction between objective antibody and the FcγR was carried out using Biacore T100 (GE Healthcare). HBS-EP+ (GE Healthcare) was used as the running buffer, and the measurement temperature was set to 25° C. Chips produced by immobilizing the antigen peptide by the amine coupling method to a Series S Sencor Chip CM5 (GE Healthcare), or alternatively, chips produced by allowing preliminarily biotinylated antigen peptides to interact with and immobilize onto a Series S Sensor Chip SA (certified) (GE Healthcare) were used. Antibodies of interest were captured onto an antigen peptide-immobilized chip, and allowed to interact to each FcγR diluted with running buffer. To regenerate and repeatedly use the chip, the antibodies captured on the chip were washed off by reacting 10 mM glycine-HCl, pH 1.5.

FcγRIIb = biological target: T1, FcγRIIb; test: as above
Experimental: as §1, §2

T2 sequence (P12314 16-292): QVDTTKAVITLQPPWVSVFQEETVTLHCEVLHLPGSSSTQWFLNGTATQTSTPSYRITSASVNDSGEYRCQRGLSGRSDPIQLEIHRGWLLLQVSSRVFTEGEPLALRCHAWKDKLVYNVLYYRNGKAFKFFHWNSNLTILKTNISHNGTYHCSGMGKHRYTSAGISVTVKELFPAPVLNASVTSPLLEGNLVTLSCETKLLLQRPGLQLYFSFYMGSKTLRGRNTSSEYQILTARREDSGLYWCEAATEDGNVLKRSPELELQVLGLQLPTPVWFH

He/Con_1a (FcγRIa)	He/Con_2b (FcγRIIb)	Binder
99.1 % of GpH7-A5/GpH7-B3/GpL16-k0	69.1 % of GpH7-A5/GpH7-B3/GpL16-k0	GpH7-A5/GpH7-B3 variant N325_19Q/GpL16-k0 (antibody, human IgG1, kappa, He Ab: mutation in one H chain only; also called He Ab) heavy 1: not shown heavy 2: not shown light: DIVMTQSPLSLPVTPGEPASISCQASESLVHSNRNTYLHWYLQKPGQSPQLLIYKVSNRFSGVPDRFSGSGSGTDFTLKISRVEAEDVGVYYCSQNTHVPPTFGQGTKVEIERTVAAPSVFIFPPSDEQLKSGTASVVCLLNNFYPREAKVQWKVDNALQSGNSQESVTEQDSKDSTYSLSSTLTLSKADYEKHKVYACEVTHQGLSSPVTKSFNRGEC
109 % of GpH7-A5/GpH7-B3/GpL16-k0	73.3 % of GpH7-A5/GpH7-B3/GpL16-k0	GpH7-A5/GpH7-B3 variant S298_19Q/GpL16-k0 (antibody, human IgG1, kappa, He Ab: mutation in one H chain only; also called He Ab) heavy 1: not shown heavy 2: not shown light: DIVMTQSPLSLPVTPGEPASISCQASESLVHSNRNTYLHWYLQKPGQSPQLLIYKVSNRFSGVPDRFSGSGSGTDFTLKISRVEAEDVGVYYCSQNTHVPPTFGQGTKVEIERTVAAPSVFIFPPSDEQLKSGTASVVCLLNNFYPREAKVQWKVDNALQSGNSQESVTEQDSKDSTYSLSSTLTLSKADYEKHKVYACEVTHQGLSSPVTKSFNRGEC
96.8 % of GpH7-A5/GpH7-B3/GpL16-k0	64.4 % of GpH7-A5/GpH7-B3/GpL16-k0	GpH7-A5/GpH7-B3 variant N325_02A/GpL16-k0 (antibody, human IgG1, kappa, He Ab: mutation in one H chain only; also called He Ab) heavy 1: not shown heavy 2: not shown light: DIVMTQSPLSLPVTPGEPASISCQASESLVHSNRNTYLHWYLQKPGQSPQLLIYKVSNRFSGVPDRFSGSGSGTDFTLKISRVEAEDVGVYYCSQNTHVPPTFGQGTKVEIERTVAAPSVFIFPPSDEQLKSGTASVVCLLNNFYPREAKVQWKVDNALQSGNSQESVTEQDSKDSTYSLSSTLTLSKADYEKHKVYACEVTHQGLSSPVTKSFNRGEC
98.8 % of GpH7-A5/GpH7-B3/GpL16-k0	81.1 % of GpH7-A5/GpH7-B3/GpL16-k0	GpH7-A5/GpH7-B3 variant S324_01G/GpL16-k0 (antibody, human IgG1, kappa, He Ab: mutation in one H chain only; also called He Ab) heavy 1: not shown heavy 2: not shown light: DIVMTQSPLSLPVTPGEPASISCQASESLVHSNRNTYLHWYLQKPGQSPQLLIYKVSNRFSGVPDRFSGSGSGTDFTLKISRVEAEDVGVYYCSQNTHVPPTFGQGTKVEIERTVAAPSVFIFPPSDEQLKSGTASVVCLLNNFYPREAKVQWKVDNALQSGNSQESVTEQDSKDSTYSLSSTLTLSKADYEKHKVYACEVTHQGLSSPVTKSFNRGEC
108 % of GpH7-A5/GpH7-B3/GpL16-k0	47.6 % of GpH7-A5/GpH7-B3/GpL16-k0	GpH7-A5/GpH7-B3 variant S298_10E/GpL16-k0 (antibody, human IgG1, kappa, He Ab: mutation in one H chain only; also called He Ab) heavy 1: not shown heavy 2: not shown light: DIVMTQSPLSLPVTPGEPASISCQASESLVHSNRNTYLHWYLQKPGQSPQLLIYKVSNRFSGVPDRFSGSGSGTDFTLKISRVEAEDVGVYYCSQNTHVPPTFGQGTKVEIERTVAAPSVFIFPPSDEQLKSGTASVVCLLNNFYPREAKVQWKVDNALQSGNSQESVTEQDSKDSTYSLSSTLTLSKADYEKHKVYACEVTHQGLSSPVTKSFNRGEC
109 % of GpH7-A5/GpH7-B3/GpL16-k0	57.8 % of GpH7-A5/GpH7-B3/GpL16-k0	GpH7-A5/GpH7-B3 variant S298_12R/GpL16-k0 (antibody, human IgG1, kappa, He Ab: mutation in one H chain only; also called He Ab) heavy 1: not shown heavy 2: not shown light: DIVMTQSPLSLPVTPGEPASISCQASESLVHSNRNTYLHWYLQKPGQSPQLLIYKVSNRFSGVPDRFSGSGSGTDFTLKISRVEAEDVGVYYCSQNTHVPPTFGQGTKVEIERTVAAPSVFIFPPSDEQLKSGTASVVCLLNNFYPREAKVQWKVDNALQSGNSQESVTEQDSKDSTYSLSSTLTLSKADYEKHKVYACEVTHQGLSSPVTKSFNRGEC
106 % of GpH7-A5/GpH7-B3/GpL16-k0	48.3 % of GpH7-A5/GpH7-B3/GpL16-k0	GpH7-A5/GpH7-B3 variant S298_09D/GpL16-k0 (antibody, human IgG1, kappa, He Ab: mutation in one H chain only; also called He Ab) heavy 1: not shown heavy 2: not shown light: DIVMTQSPLSLPVTPGEPASISCQASESLVHSNRNTYLHWYLQKPGQSPQLLIYKVSNRFSGVPDRFSGSGSGTDFTLKISRVEAEDVGVYYCSQNTHVPPTFGQGTKVEIERTVAAPSVFIFPPSDEQLKSGTASVVCLLNNFYPREAKVQWKVDNALQSGNSQESVTEQDSKDSTYSLSSTLTLSKADYEKHKVYACEVTHQGLSSPVTKSFNRGEC
104 % of GpH7-A5/GpH7-B3/GpL16-k0	41.1 % of GpH7-A5/GpH7-B3/GpL16-k0	GpH7-A5/GpH7-B3 variant S298_20W/GpL16-k0 (antibody, human IgG1, kappa, He Ab: mutation in one H chain only; also called He Ab) heavy 1: not shown heavy 2: not shown light: DIVMTQSPLSLPVTPGEPASISCQASESLVHSNRNTYLHWYLQKPGQSPQLLIYKVSNRFSGVPDRFSGSGSGTDFTLKISRVEAEDVGVYYCSQNTHVPPTFGQGTKVEIERTVAAPSVFIFPPSDEQLKSGTASVVCLLNNFYPREAKVQWKVDNALQSGNSQESVTEQDSKDSTYSLSSTLTLSKADYEKHKVYACEVTHQGLSSPVTKSFNRGEC
109 % of GpH7-A5/GpH7-B3/GpL16-k0	63.5 % of GpH7-A5/GpH7-B3/GpL16-k0	GpH7-A5/GpH7-B3 variant S298_16H/GpL16-k0 (antibody, human IgG1, kappa, He Ab: mutation in one H chain only; also called He Ab) heavy 1: not shown heavy 2: not shown light: DIVMTQSPLSLPVTPGEPASISCQASESLVHSNRNTYLHWYLQKPGQSPQLLIYKVSNRFSGVPDRFSGSGSGTDFTLKISRVEAEDVGVYYCSQNTHVPPTFGQGTKVEIERTVAAPSVFIFPPSDEQLKSGTASVVCLLNNFYPREAKVQWKVDNALQSGNSQESVTEQDSKDSTYSLSSTLTLSKADYEKHKVYACEVTHQGLSSPVTKSFNRGEC
